Measurements: publication PMC10580122, “Human IL-35 Inhibits the Bioactivity of IL-12 and Its Interaction with IL-12Rβ2” (ImmunoHorizons, 2023)

Target: T1, recombinant human IL-12Rβ1 (human, UniProt P42701 24-545)
T1 construct: human IL-12 receptor subunit beta-1, recombinant; also called rIL-12Rβ1; source: bought: Sino Biological (11674-H08H)
Assay: ELISA; solid-phase binding assay; wells coated with rIL-12Rβ1, rIL-12Rβ2 or no IL-12R chain; IL-12 or IL-12p40 monomer alone or with IL-35, each cytokine fixed at 5 μg/ml; overnight at 4°C; detected with anti-IL-12 or anti-IL-12p40 and HRP
Conditions: both partners purified

B1: Human IL-12 (complex)
chain 1: RNLPVATPDPGMFPCLHHSQNLLRAVSNMLQKARQTLEFYPCTSEEIDHEDITKDKTSTVEACLPLELTKNESCLNSRETSFITNGSCLASRKTSFMMALCLSSIYEDLKMYQVEFKTMNAKLLMDPKRQIFLDQNMLAVIDELMQALNFNSETVPQKSSLEEPDFYKTKIKLCILLHAFRIRAVTIDRVMSYLNAS
chain 2: IWELKKDVYVVELDWYPDAPGEMVVLTCDTPEEDGITWTLDQSSEVLGSGKTLTIQVKEFGDAGQYTCHKGGEVLSHSLLLLHKKEDGIWSTDILKDQKEPKNKTFLRCEAKNYSGRFTCWWLTTISTDLTFSVKSSRGSSDPQGVTCGAATLSAERVRGDNKEYEYSVECQEDSACPAAEESLPIEVMVDAVHKLKYENYTSSFFIRDIIKPDPPKNLQLKPLKNSRQVEVSWEYPDTWSTPHSYFSLTFCVQVQGKSKREKKDRVFTDKTSATVICRKNASISVRAQDRYYSSSWSEWASVPCS
notes: p35 subunit of human IL-12 (IL-12p35); linked to p40 via a disulfide bond; p40 subunit of human IL-12 (IL-12p40); linked to p35 via a disulfide bond; Bought heterodimer of p35 and p40; also called exogenous human IL-12; source: bought: PeproTech (200-12H)
  binding result: binds
